Data as given in article PMC5394239 (Nature Communications, 2017).

Target: the molecule itself
Assay: cryo-EM structure

B1: SARS-CoV S ectodomain, uncleaved, trimerization motif and His tag removed by thrombin (domain or fragment)
chain: not shown
  stoichiometry N: 3
